Article PMC12538065

System: Zn(II)-bound Fur homodimer (Escherichia coli (expressed in MC4100))
Assay: HinfI restriction site protection
Settings: 0.5 uM (as monomer) sufficient to protect, not a Kd, 2 mM Mg2+, 3.2 nM pUC19-iuc, 20 mM Tris pH 8.0, 150 mM NaCl, 2 mM MgCl2, 0.1 mg/ml BSA, 10 min at room temperature, then HinfI (1 unit) 37 C 10 min

Q: With pUC19-iuc (Fur-box of iucABCD promoter) as the substance, how does the binding read?
A: 0.5 µM
